PMC3663845

Target: active (cleaved) presenilin of γ-secretase, marked at the active site by the inhibitor GTB (mouse (endogenous in primary hippocampal neurons))
Assay: proximity ligation; in situ PLA with 200 nM GTB (photoreactive biotinylated γ-secretase inhibitor, UV-irradiated, probed with streptavidin-oligonucleotide PLUS) in place of the PS antibody and mouse nicastrin-CT antibody (anti-mouse MINUS probe); fixed, 0.4% CHAPSO-permeabilised mouse primary hippocampal neurons; 10 µM L-685,458 as competitor of GTB in the control

- PLA signals per cell: 214 signals/cell
- fold increase of PLA signals over the sum of the negative controls (first way of calculating): 4.5 fold
- fold increase of PLA signals over the sum of the negative controls (second way of calculating): 4.5 fold
Substance: nicastrin (from UniProt P57716 28-708) (natural protein)
